B1: DNA topoisomerase 2-binding protein 1 (Homo sapiens), Q92547 (parent)
chain: MSRNDKEPFFVKFLKSSDNSKCFFKALESIKEFQSEEYLQIITEEEALKIKENDRSLYICDPFSGVVFDHLKKLGCRIVGPQVVIFCMHHQRCVPRAEHPVYNMVMSDVTISCTSLEKEKREEVHKYVQMMGGRVYRDLNVSVTHLIAGEVGSKKYLVAANLKKPILLPSWIKTLWEKSQEKKITRYTDINMEDFKCPIFLGCIICVTGLCGLDRKEVQQLTVKHGGQYMGQLKMNECTHLIVQEPKGQKYECAKRWNVHCVTTQWFFDSIEKGFCQDESIYKTEPRPEAKTMPNSSTPTSQINTIDSRTLSDVSNISNINASCVSESICNSLNSKLEPTLENLENLDVSAFQAPEDLLDGCRIYLCGFSGRKLDKLRRLINSGGGVRFNQLNEDVTHVIVGDYDDELKQFWNKSAHRPHVVGAKWLLECFSKGYMLSEEPYIHANYQPVEIPVSHKPESKAALLKKKNSSFSKKDFAPSEKHEQADEDLLSQYENGSSTVVEAKTSEARPFNDSTHAEPLNDSTHISLQEENQSSVSHCVPDVSTITEEGLFSQKSFLVLGFSNENESNIANIIKENAGKIMSLLSRTVADYAVVPLLGCEVEATVGEVVTNTWLVTCIDYQTLFDPKSNPLFTPVPVMTGMTPLEDCVISFSQCAGAEKESLTFLANLLGASVQEYFVRKSNAKKGMFASTHLILKERGGSKYEAAKKWNLPAVTIAWLLETARTGKRADESHFLIENSTKEERSLETEITNGINLNSDTAEHPGTRLQTHRKTVVTPLDMNRFQSKAFRAVVSQHARQVAASPAVGQPLQKEPSLHLDTPSKFLSKDKLFKPSFDVKDALAALETPGRPSQQKRKPSTPLSEVIVKNLQLALANSSRNAVALSASPQLKEAQSEKEEAPKPLHKVVVCVSKKLSKKQSELNGIAASLGADYRWSFDETVTHFIYQGRPNDTNREYKSVKERGVHIVSEHWLLDCAQECKHLPESLYPHTYNPKMSLDISAVQDGRLCNSRLLSAVSSTKDDEPDPLILEENDVDNMATNNKESAPSNGSGKNDSKGVLTQTLEMRENFQKQLQEIMSATSIVKPQGQRTSLSRSGCNSASSTPDSTRSARSGRSRVLEALRQSRQTVPDVNTEPSQNEQIIWDDPTAREERARLASNLQWPSCPTQYSELQVDIQNLEDSPFQKPLHDSEIAKQAVCDPGNIRVTEAPKHPISEELETPIKDSHLIPTPQAPSIAFPLANPPVAPHPREKIITIEETHEELKKQYIFQLSSLNPQERIDYCHLIEKLGGLVIEKQCFDPTCTHIVVGHPLRNEKYLASVAAGKWVLHRSYLEACRTAGHFVQEEDYEWGSSSILDVLTGINVQQRRLALAAMRWRKKIQQRQESGIVEGAFSGWKVILHVDQSREAGFKRLLQSGGAKVLPGHSVPLFKEATHLFSDLNKLKPDDSGVNIAEAAAQNVYCLRTEYIADYLMQESPPHVENYCLPEAISFIQNNKELGTGLSQKRKAPTEKNKIKRPRVH

Assays:
e2f1_human E2F1, Q01094 = variants of: B1; conditions: with e2f1_human E2F1, Q01094
akt1_human AKT1, P31749 = variants of: B1; conditions: with akt1_human AKT1, P31749
[1] = variants of: B1; conditions: with pias2_human PIAS2, O75928
ve2_hpv16 E2, P03120 = variants of: B1; conditions: with ve2_hpv16 E2, P03120
Chain of ve2_hpv16 E2, P03120 (P03120 whole entry): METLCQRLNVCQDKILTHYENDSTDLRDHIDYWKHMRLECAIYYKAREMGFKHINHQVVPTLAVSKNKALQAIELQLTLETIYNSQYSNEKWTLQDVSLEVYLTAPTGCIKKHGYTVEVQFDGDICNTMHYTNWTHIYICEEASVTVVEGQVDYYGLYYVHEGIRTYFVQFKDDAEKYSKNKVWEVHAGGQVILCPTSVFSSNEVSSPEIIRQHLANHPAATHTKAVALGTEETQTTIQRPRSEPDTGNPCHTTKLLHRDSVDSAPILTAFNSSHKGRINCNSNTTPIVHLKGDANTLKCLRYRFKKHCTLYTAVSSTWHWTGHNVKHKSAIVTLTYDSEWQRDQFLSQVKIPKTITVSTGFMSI

Chain of e2f1_human E2F1, Q01094 (Q01094 whole entry): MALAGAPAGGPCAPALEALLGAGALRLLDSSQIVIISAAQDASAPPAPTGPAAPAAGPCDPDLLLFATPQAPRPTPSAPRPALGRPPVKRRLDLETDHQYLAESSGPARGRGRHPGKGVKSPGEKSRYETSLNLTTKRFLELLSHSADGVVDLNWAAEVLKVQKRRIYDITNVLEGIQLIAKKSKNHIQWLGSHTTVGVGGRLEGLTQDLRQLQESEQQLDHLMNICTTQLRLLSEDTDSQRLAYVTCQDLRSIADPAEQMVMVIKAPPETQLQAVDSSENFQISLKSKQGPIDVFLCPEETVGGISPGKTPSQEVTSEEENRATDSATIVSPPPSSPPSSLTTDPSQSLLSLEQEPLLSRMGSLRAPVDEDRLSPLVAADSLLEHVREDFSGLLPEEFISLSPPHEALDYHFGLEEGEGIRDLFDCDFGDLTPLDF
Chain of akt1_human AKT1, P31749 (P31749 whole entry): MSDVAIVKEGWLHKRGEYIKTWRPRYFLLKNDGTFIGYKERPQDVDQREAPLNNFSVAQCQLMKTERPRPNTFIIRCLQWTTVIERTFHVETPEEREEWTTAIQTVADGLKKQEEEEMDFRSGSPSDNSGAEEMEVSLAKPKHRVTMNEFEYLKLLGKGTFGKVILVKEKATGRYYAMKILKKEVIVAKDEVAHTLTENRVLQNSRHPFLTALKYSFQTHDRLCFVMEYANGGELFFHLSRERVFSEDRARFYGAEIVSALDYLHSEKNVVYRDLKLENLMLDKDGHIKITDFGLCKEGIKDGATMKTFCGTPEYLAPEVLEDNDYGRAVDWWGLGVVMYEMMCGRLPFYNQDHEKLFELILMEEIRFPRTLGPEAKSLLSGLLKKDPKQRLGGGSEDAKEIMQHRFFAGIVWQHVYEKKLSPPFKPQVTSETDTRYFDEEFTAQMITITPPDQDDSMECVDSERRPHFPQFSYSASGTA
Chain of pias2_human PIAS2, O75928 (O75928 whole entry): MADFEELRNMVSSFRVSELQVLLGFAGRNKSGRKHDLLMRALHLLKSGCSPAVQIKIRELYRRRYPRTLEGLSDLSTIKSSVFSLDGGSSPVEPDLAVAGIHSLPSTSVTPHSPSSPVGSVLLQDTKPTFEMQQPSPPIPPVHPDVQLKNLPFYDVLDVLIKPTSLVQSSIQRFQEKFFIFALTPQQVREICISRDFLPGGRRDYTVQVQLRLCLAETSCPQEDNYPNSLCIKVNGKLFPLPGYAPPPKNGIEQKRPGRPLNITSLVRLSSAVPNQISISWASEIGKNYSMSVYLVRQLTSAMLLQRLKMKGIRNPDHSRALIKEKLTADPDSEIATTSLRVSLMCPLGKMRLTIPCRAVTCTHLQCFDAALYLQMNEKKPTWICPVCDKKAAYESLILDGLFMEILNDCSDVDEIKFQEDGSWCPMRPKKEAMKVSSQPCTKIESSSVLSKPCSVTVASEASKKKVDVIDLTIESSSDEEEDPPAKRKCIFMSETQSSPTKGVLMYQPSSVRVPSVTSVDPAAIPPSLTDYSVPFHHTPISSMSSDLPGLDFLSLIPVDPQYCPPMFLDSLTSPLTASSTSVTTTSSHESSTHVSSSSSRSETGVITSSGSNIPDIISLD

S1159D
effect of a mutation on the interaction (e2f1_human E2F1, Q01094): decreasing interaction

S1159A
effect of a mutation on the interaction (akt1_human AKT1, P31749): disrupting interaction
effect of a mutation on the interaction [1]: decreasing interaction
effect of a mutation on the interaction (e2f1_human E2F1, Q01094): disrupting interaction
effect of a mutation on the interaction (ve2_hpv16 E2, P03120): decreasing interaction
